In patent US20190100602A1 (INSERM INSTITUT NATIONAL DE LA SANT ET DE LA RECHERCHE M …, published 2019):

B1: KB-AT-001 (VHH)
VHH: QVQLQQSGGDLAQRGGSLRLSCAASGRTFRNYVMGWFRQAPGKDPEFIAGINRSGAITYYGDSVKGRFTISRDNAKNTVSLQMNSLEPEDTAVYYCAAGETTWSIRRDDYDYWGQGTQVTVSS
notes: Monovalent anti-antithrombin single-domain antibody; also called sdAb KB-AT-001
B2: KB-AT-007 (VHH)
VHH: QVQLQQSGGGLVQAGGSLRLSCAASGRTFRNYVMGWFRQAPGKDPEFIAGINRSGAITYYGDSVKGRFTISRDNAKNTVSLQMNSLEPEDTAVYYCAAGETTWSIRRDDYDYWGQGTQVTVSS
notes: Monovalent anti-antithrombin single-domain antibody; same CDRs as KB-AT-001; also called sdAb KB-AT-007
B3: KB-AT-006 (VHH)
VHH: QVQLQQSGGGLVQAGGSLRLSCAASGRTFSNNGMGWFRQAPGKEREFVAAISWSSGSTYYADSVKGRYTISRDNAKNTVYLQMNSLKPEDTAVYYCAARTRYNSGYFTRNYDYWGQGTQVTVSS
notes: Monovalent anti-antithrombin single-domain antibody; also called sdAb KB-AT-006
B4: KB-AT-005 (VHH)
VHH: EVQLVESGGGLVQPGGSLRLSCEASGRDFNDAALGWSRQVPGKARETVAMITSGGVRNYAETVKDRFTISRDNAKNTVYLDMNNLQPDDTGVYYCKADSFKGDYDTSWYLYWGQGTQVTVSS
notes: Monovalent anti-antithrombin single-domain antibody; also called sdAb KB-AT-005
B5: KB-AT-003 (VHH)
VHH: QVQLVQSGGGLVQPGGSLRLSCAASALTFSSRAWAWYRQAPGKQRELVASITGGGTTNYADSVKGRFTISRDNAKNTVYLQMNSLKPEDTAVHYCNGYRYTYAWGQGTQVTVSS
notes: Monovalent anti-antithrombin single-domain antibody; also called sdAb KB-AT-003
B6: KB-AT-004 (VHH)
VHH: VQLQQSGGGLVQPGGSLRLSCAASAMTFSIRAWAWYRQAPGKQRELVASIGTGDITNYADSVKGRFTISRDNAKNTFYLQMNSLKPEDTAVYYCNGYRSTYAWGQGTQVTVSS
notes: Monovalent anti-antithrombin single-domain antibody; also called sdAb KB-AT-004

Legend:
human antithrombin [1] = target: T1, human antithrombin (human, UniProt P01008 33-464); test: ELISA: sdAb coated on the plate, antithrombin added in solution; the concentration is that of antithrombin
T1 construct: Serpin; the description says that AT consists of 432 amino acids; also called purified human antithrombin; AT
T1 sequence (P01008 33-464 limits assumed): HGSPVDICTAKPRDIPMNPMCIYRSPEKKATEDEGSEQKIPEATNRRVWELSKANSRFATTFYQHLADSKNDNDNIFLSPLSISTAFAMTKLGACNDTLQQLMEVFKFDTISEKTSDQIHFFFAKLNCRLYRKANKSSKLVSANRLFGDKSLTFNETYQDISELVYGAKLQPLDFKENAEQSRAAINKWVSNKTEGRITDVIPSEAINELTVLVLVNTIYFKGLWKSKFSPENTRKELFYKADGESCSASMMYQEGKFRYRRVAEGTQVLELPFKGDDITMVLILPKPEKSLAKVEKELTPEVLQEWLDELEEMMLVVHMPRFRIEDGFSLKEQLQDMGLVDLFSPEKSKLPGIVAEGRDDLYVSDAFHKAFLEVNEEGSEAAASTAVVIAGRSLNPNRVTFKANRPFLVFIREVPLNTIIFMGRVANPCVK
Method: (§1) sdAbs recognizing antithrombin (KB-AT-001, -002, -003, -004, -005, -006, and -007) were immobilized (5 microgram/ml) in 10 mM NaHCO₃, 50 mM Na2CO3 (pH 9.5) in a volume of 50 microliter in half-well microtiter plates (Greiner Bio-One, Les Ulis, France) for 16 h at 4° C. After washing the wells three times with 100 microliter/well using Tris-buffered saline (pH 7.6) supplemented with 0.1% Tween-20 (TBS-T), wells were blocked with 100 microliter/well of TBS-T supplemented with 5% skimmed milk for 30 min at 37° C. Wells were washed as described above, and subsequently different concentrations of purified human antithrombin or murine antithrombin (0-5 micromolar diluted in Tris-buffered saline (pH 7.6) supplemented with 5% skimmed milk; 50 microliter/well) were added to each of the immobilized sdAbs and incubated for 2 hours. Wells were then washed three times with 100 microliter/well using TBS-T. Bound antithrombin was probed with peroxidase-labeled polyclonal rabbit anti-antithrombin antibodies (Diagnostica Stago, Asnièrs-sur-Seine, France; Dilution 1/100) for 1 hour at 37° C. with 50 microliter per well. Wells were then washed three times with 100 microliter/well using TBS-T. Residual peroxidase activity was detected by measuring peroxidase-mediated hydrolysis of 3,3′,5,5′-tetramethylbenzidine. OD-values were plotted against antithrombin concentrations (FIG. 1).

murine antithrombin [2] = target: T2, murine antithrombin (mouse, UniProt P32261 33-465); test: as above
T2 construct: also called mouse antithrombin; murine AT
T2 sequence (P32261 33-465 limits assumed): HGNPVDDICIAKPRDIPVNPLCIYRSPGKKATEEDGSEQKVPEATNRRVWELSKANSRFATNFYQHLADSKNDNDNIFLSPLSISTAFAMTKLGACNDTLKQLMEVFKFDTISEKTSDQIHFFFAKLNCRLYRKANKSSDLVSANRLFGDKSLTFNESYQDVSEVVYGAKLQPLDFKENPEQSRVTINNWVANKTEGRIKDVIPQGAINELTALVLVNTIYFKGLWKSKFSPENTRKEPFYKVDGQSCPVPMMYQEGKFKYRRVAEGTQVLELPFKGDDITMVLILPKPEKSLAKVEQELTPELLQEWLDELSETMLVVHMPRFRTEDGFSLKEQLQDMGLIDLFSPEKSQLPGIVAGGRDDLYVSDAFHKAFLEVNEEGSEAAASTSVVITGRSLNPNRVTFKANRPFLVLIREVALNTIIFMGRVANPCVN
Method: as §1

human antithrombin [3] = target: T1, human antithrombin; test: cell-based or functional assay
human antithrombin [4] = target: T1, human antithrombin; test: BLI (Octet-QK), sdAb coupled to sensor, antithrombin 12.5-50 ug/ml; apparent KD
Method: The interaction between sdAbs KB-AT-001, KB-AT-002, KB-AT-003 and KB-AT-006 versus human antithrombin was further analyzed via biolayer-interferometry analysis using Octet-QK equipment in order to determine apparent dissociation constants (KD,app). To this end, sdAbs KB-AT-001, KB-AT-002, KB-AT-003 and KB-AT-006 were diluted in 0.1 M Mes (pH 5.0) to a concentration of 200 microgram/ml for coupling to EDC/NHS-activated amine-reactive biosensors (Fort6bio, Menlo Park, Calif., USA). Sensors were rehydrated in 0.2 ml 0.1 M MES, pH 5.0 for 300 sec. Sensors were then activated via incubation with 0.1 ml 0.2 M EDC/0.095 M NHS mixture for 300 sec and subsequently incubated with 0.1 ml sdAb-solution for 600 sec. […] Following this association phase, sensors were transferred to wells containing PBS-T and incubated for 900 sec, allowing dissociation of the antithrombin-sdAb complex. Obtained data were subsequently analyzed using Octet-QK data analysis software (Origin vs 4) to estimate KD,app.

human antithrombin [5] = target: T1, human antithrombin; test: cell-based or functional assay; remark: listed apart in the source
rat antithrombin [6] = target: T3, rat antithrombin (rat, UniProt Q8VHJ4); test: ELISA, sdAb coated, plasma 1/4, bound antithrombin probed with polyclonal anti-antithrombin; grade by OD
T3 construct: Native protein in plasma diluted 1/4; also called rat AT; antithrombin in rat plasma
Method: (§2) sdAbs KB-AT-001, -002. -003, -004, -005, -006, and -007 were immobilized (10 microgram/ml) in 10 mM NaHCO₃, 50 mM Na2CO3 (pH 9.5) in a volume of 50 microliter in half-well microtiter plates (Greiner Bio-One, Les Ulis, France) for 16 h at 4° C. As a positive control, polyclonal anti-antithrombin antibodies (MATIII-EIA kit, Affinity biologicals, Ancaster Canada) were immobilized in a similar fashion. As a negative control, the anti-von Willebrand sdAb KB-VWF-006 was immobilized. After washing the wells three times with 100 microliter/well using Tris-buffered saline (pH 7.6) supplemented with 0.1% Tween-20 (TBS-T), wells were blocked with 100 microliter/well of TBS-T supplemented with 3% bovine serum albumin (BSA) for 30 min at 37° C. Wells were washed as described above, and subsequently the following plasma preparations (diluted ¼ in TBS-T/3% BSA, 100 microliter per well, 2 hours at 37° C.) were added to each of the immobilized sdAbs and both types of control wells: rabbit plasma, canine plasma, simian plasma, bovine plasma, porcine plasma, rat plasma, murine plasma and human plasma.
(§3) Wells were then washed three times with 100 microliter/well using TBS-T. Bound antithrombin was probed with peroxidase-labeled polyclonal anti-antithrombin antibodies (MATIII-EIA kit, Affinity biologicals, Ancaster Canada; diluted 1/100) for 2 hours at 37° C. with 50 microliter per well. Wells were then washed three times with 100 microliter/well using TBS-T. Residual peroxidase activity was detected by measuring peroxidase-mediated hydrolysis of 3,3′,5,5′-tetramethylbenzidine.
(§4) Negative binding (−) was defined as optical density (OD) being ≤0.1, moderate positive binding (+) was defined as OD being >0.1 and <0.5, strongly positive binding (++) was defined as OD being ≥0.5. […] All plasma preparations had moderate or strongly positive binding to the positive control (polyclonal anti-antithrombin antibodies).

simian antithrombin = target: T4, simian antithrombin (simian); test: as above
T4 construct: Native protein in plasma diluted 1/4; also called simian AT; antithrombin in simian plasma
Method: as §2, §3, §4

human antithrombin [7] = target: T1, human antithrombin; test: as above
Method: as §2, §3, §4

murine antithrombin [8] = target: T2, murine antithrombin; test: as above
Method: as §2, §3, §4

rabbit antithrombin [9] = target: T5, rabbit antithrombin (rabbit); test: as above
T5 construct: Native protein in plasma diluted 1/4; also called rabbit AT; antithrombin in rabbit plasma
Method: as §2, §3, §4

porcine antithrombin [10] = target: T6, porcine antithrombin (porcine); test: ELISA, sdAb coated, plasma 1/4, bound antithrombin probed with polyclonal anti-antithrombin
T6 construct: Native protein in plasma diluted 1/4; also called porcine AT; antithrombin in porcine plasma
Method: as §2, §3, §4

canine antithrombin [11] = target: T7, canine antithrombin (canine); test: as above
T7 construct: Native protein in plasma diluted 1/4; also called canine AT; antithrombin in canine plasma
Method: as §2, §3, §4

bovine antithrombin = target: T8, bovine antithrombin (bovine, UniProt P41361 33-465); test: as above
T8 construct: Native protein in plasma diluted 1/4; also called bovine AT; antithrombin in bovine plasma
T8 sequence (P41361 33-465): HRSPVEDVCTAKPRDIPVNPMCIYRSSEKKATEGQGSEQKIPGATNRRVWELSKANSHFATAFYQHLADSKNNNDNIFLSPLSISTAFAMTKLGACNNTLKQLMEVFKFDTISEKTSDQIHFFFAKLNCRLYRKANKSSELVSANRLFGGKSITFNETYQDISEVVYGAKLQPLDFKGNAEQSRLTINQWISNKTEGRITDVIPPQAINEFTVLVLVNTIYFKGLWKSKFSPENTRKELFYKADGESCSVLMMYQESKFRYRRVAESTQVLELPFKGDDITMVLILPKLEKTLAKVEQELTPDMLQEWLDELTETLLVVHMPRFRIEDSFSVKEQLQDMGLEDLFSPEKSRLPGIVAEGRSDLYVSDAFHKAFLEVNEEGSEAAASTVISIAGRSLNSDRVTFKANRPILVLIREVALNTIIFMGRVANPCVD
Method: as §2, §3, §4

rat antithrombin [12] = target: T3, rat antithrombin; test: as above
Method: as §2, §3, §4

rabbit antithrombin [13] = target: T5, rabbit antithrombin; test: as above
Method: as §2, §3, §4

porcine antithrombin [14] = target: T6, porcine antithrombin; test: ELISA, sdAb coated, plasma 1/4, bound antithrombin probed with polyclonal anti-antithrombin; grade by OD
Method: as §2, §3, §4

canine antithrombin [15] = target: T7, canine antithrombin; test: as above
Method: as §2, §3, §4

Binder | EC50 (read off the curve) (human antithrombin [1]) [nM] | EC50 (read off the curve) (murine antithrombin [2]) [nM] | percentage of neutralization of antithrombin-mediated factor Xa inhibition, with LMW-heparin (human antithrombin [3]) [%] | percentage of neutralization of antithrombin-mediated thrombin inhibition, with unfractionated heparin (human antithrombin [3]) [%] | Kd (human antithrombin [4]) [nM] | % antithrombin neutralization (thrombin amidolytic activity on S-2238, no heparin) (human antithrombin [5]) [%] | OD (rat antithrombin [6]) [od] | OD (simian antithrombin) [od] | OD (human antithrombin [7]) [od] | OD (murine antithrombin [8]) [od] | OD (rabbit antithrombin [9]) [od] | OD (porcine antithrombin [10]) [od] | OD (canine antithrombin [11]) [od] | OD (bovine antithrombin) [od] | OD (rat antithrombin [12]) [od] | OD (rabbit antithrombin [13]) [od] | OD (porcine antithrombin [14]) [od] | OD (canine antithrombin [15]) [od]
B1 | ~700 | ~600 | < 15 | < 5 | 14 | 62 | 0.1 to 0.5 | ≥ 0.5 | 0.1 to 0.5 | ≥ 0.5 | 0.1 to 0.5 | ≤ 0.1 | ≤ 0.1 | ≤ 0.1 | – | – | – | –
B2 | – | – | < 15 | < 5 | – | 61 | – | ≥ 0.5 | 0.1 to 0.5 | 0.1 to 0.5 | – | ≤ 0.1 | ≤ 0.1 | ≤ 0.1 | ≤ 0.1 | ≤ 0.1 | – | –
B3 | ~500 | – | < 15 | < 5 | 22 | 58 | 0.1 to 0.5 | ≥ 0.5 | 0.1 to 0.5 | 0.1 to 0.5 | ≥ 0.5 | – | – | ≤ 0.1 | – | – | 0.1 to 0.5 | 0.1 to 0.5
B4 | – | ~400 | < 15 | < 5 | – | 57 | – | 0.1 to 0.5 | 0.1 to 0.5 | 0.1 to 0.5 | – | ≤ 0.1 | ≤ 0.1 | ≤ 0.1 | ≤ 0.1 | ≤ 0.1 | – | –
B5 | – | – | < 15 | < 5 | 0.4 | 67 | 0.1 to 0.5 | ≥ 0.5 | ≥ 0.5 | ≥ 0.5 | – | ≤ 0.1 | – | ≤ 0.1 | – | ≤ 0.1 | – | 0.1 to 0.5
B6 | – | – | < 15 | < 5 | – | 55 | 0.1 to 0.5 | 0.1 to 0.5 | 0.1 to 0.5 | ≥ 0.5 | – | – | – | ≤ 0.1 | – | ≤ 0.1 | 0.1 to 0.5 | 0.1 to 0.5
